# Reference: PMC3115060, “Structural Analysis of a Novel Class of R–M Controller Proteins: C.Csp231I from Citrobacter sp. RFL231” (Journal of Molecular Biology, 2011)
# B1: C.Csp231I controller protein (natural protein, Citrobacter sp. RFL231, UniProt Q32WH4 1-98, looked up)
# chain: MLIRRLKDARLRAGISQEKLGVLAGIDEASASARMNQYEKGKHAPDFEMANRLAKVLKIPVSYLYTPEDDLAQIILTWNELNEQERKRINFYIRKKAK
# notes: C.Csp231I controller protein of the Csp231I restriction-modification system, Citrobacter sp; RFL231; native untagged protein, 98 amino acids (Mr 11,360), expressed from the csp231IC gene; Homodimer in solution and in both crystal forms; also called C-protein; source: E. coli BL21(DE3) Gold, pET-11a, purified (HiTrap heparin, HiTrap SP, Sephacryl S-100 HR)
# Molecular target: the molecule itself
# Assay: AUC; sedimentation velocity, 10-80 uM protein, 50 mM Tris-HCl pH 8.0, 100 mM NaCl, 1 mM Na2-EDTA, 20 C, 40,000 rpm, 280 nm; self-association (dimer)
protein,measurement,value
B1,stoichiometry N,2
